The target in this assay is T1, Strep-Opa1 (s-Opa1, amino acids 253-960), expressed in P. pastoris (human, UniProt O60313 253-960).
T1 construct: Opa1 (optic atrophy 1), human, residues 253-960 (s-Opa1); N-terminal Twin-Strep tag, HRV 3C cleavage site and (G4S)3 linker; The methods also name a tagged Opa1(263-960); also called optic atrophy 1; Opa1(253-960); source: P. pastoris SMD1163, in GDN extract (lysate); purified as a complex with SLC25A46 for cross-linking; not shown: Twin-Strep, N-terminal, kept
T1 sequence (looked up): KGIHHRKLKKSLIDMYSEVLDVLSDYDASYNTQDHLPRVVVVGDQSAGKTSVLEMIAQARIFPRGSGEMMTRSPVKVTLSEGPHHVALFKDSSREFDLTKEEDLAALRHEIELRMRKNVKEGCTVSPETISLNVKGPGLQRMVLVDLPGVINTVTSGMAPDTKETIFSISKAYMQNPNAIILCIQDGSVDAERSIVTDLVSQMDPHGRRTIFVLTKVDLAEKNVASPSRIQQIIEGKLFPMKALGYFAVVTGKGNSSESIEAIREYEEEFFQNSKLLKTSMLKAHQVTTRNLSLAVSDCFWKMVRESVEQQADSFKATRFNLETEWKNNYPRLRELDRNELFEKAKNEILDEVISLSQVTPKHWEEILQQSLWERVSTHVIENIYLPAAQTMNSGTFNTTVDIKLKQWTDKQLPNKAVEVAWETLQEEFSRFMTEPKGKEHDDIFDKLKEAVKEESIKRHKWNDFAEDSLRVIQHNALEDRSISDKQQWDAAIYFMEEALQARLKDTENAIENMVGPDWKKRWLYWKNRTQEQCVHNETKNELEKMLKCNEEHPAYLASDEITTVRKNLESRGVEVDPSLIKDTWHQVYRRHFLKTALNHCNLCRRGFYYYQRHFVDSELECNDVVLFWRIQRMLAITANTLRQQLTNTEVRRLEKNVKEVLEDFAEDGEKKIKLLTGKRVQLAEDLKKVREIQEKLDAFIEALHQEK
Description: pull-down; GDN extracts of P. pastoris expressing or coexpressing the proteins; Strep-tagged Opa1 or Mfn2 held on StrepTactin XT 4Flow resin in a spin column, 4 °C, 25 mM Hepes, 150 mM NaCl, pH 8.0, washes with 0.1% GDN, elution with 50 mM biotin; Western blot; also with GTPγS, GMPPCP or GDP added to the lysates (no effect on coelution). Conditions: partners not purified. (In general: In western blotting, separated proteins are transferred to a membrane and probed.)

Experimental findings from article PMC11459905, “Identification of SLC25A46 interaction interfaces with mitochondrial membrane fusogens Opa1 and Mfn2” (The Journal of Biological Chemistry, 2024) are described below.

B1: Solute carrier family 25 member A46 with C-terminal deca-histidine (SLC25A46-His), wild type (natural protein, human, UniProt Q96AG3 1-418, looked up)
chain: MHPRRPDGFDGLGYRGGARDEQGFGGAFPARSFSTGSDLGHWVTTPPDIPGSRNLHWGEKSPPYGVPTTSTPYEGPTEEPFSSGGGGSVQGQSSEQLNRFAGFGIGLASLFTENVLAHPCIVLRRQCQVNYHAQHYHLTPFTVINIMYSFNKTQGPRALWKGMGSTFIVQGVTLGAEGIISEFTPLPREVLHKWSPKQIGEHLLLKSLTYVVAMPFYSASLIETVQSEIIRDNTGILECVKEGIGRVIGMGVPHSKRLLPLLSLIFPTVLHGVLHYIISSVIQKFVLLILKRKTYNSHLAESTSPVQSMLDAYFPELIANFAASLCSDVILYPLETVLHRLHIQGTRTIIDNTDLGYEVLPINTQYEGMRDCINTIRQEEGVFGFYKGFGAVIIQYTLHAAVLQITKIIYSTLLQNNI
notes: SLC25A46, human; gene synthesized (GenScript), cloned into pPICZ A; C terminus fused to (G4S)3 linker, TEV cleavage site and deca-histidine; only a pPICZ A (P. pastoris) construct of SLC25A46 is described; also called WT SLC25A46; source: P. pastoris SMD1163, in GDN extract (lysate); also recombinantly expressed and purified; not shown: His10, C-terminal, kept
Take B1: the binding result is “binds”.
